The values that follow come from patent US6843989 (Seagen, dated 2005).

Assay [1] addresses T1, CD40 expressed on the surface of B cells (human, UniProt P25942 21-277). The assay can be described thus: flow cytometry; soluble CD40L titrated on Ramos B cells.
The target of assay [2] is T1, CD40 expressed on the surface of B cells. The assay can be described thus: cell-based or functional assay.

T1 sequence (P25942 21-277): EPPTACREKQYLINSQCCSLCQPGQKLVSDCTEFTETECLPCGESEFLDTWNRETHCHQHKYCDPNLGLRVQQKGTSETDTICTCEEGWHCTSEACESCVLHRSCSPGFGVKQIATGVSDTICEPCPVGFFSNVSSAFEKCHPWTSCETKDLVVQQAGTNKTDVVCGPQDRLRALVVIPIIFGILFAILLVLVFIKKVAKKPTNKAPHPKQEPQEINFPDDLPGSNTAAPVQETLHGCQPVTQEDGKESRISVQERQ

In the case of “recombinant human soluble CD40 ligand (CD154-muCD8), FITC-labeled (from UniProt P29965 47-261; P27548 47-260)”, in assay [1], the saturation concentration was found to be 10 µg/mL.

B1: monoclonal antibody S2C6 (antibody, V domains shown)
VH: EVQLQQSGPDLVKPGASVKISCKASGYSFTGYYIHWVKQSHGKSLEWIGRVIPNNGGTSYNQKFKGKAILTVDKSSSTAYMELRSLTSEDSAVYYCAREGIYWWGHGTTLTVSS
VL: DVVVTQTPLSLPVSLGAQASISCRSSQSLVHSNGNTFLHWYLQKPGQSPKLLIYTVSNRFSGVPDRFSGSGSGTDFTLKISRVEAEDLGVYFCSQTTHVPWTFGGGTKLEIQ
B1: in assay [2], the “B cell proliferation (3H-thymidine incorporation) with CD40L+ T cell titration and 30 ng/ml mAb, over mAb-only stimulation” value came out at 3 fold; the “B cell proliferation of primary human peripheral blood B cells with CD40L+ stimulator cells at 4:1 (B:T), against mAb alone” value worked out at 16.2 fold.

B2: anti-CD40 mAb G28-5 (antibody, V domains shown)
VH: DIQLQQSGPGLVKPSQSLSLTCSVTGYSITTNYNWNWIRQFPGNKLEWMGYIRYDGTSEYTPSLKNRVSITRDTSMNQFFLRLTSVTPEDTATYYCARLDYWGQGTSVTVSS
VL: DAVMTQNPLSLPVSLGDEASISCRSSQSLENSNGNTFLNWFFQKPGQSPQLLIYRVSNRFSGVPDRFSGSGSGTDFTLKISRVEAEDLGVYFCLQVTHVPYTFGGGTTLEIK
As to B2, in assay [2], the “B cell proliferation (3H-thymidine incorporation) with CD40L+ T cell titration and 30 ng/ml mAb, over the level with mAb alone” value came out at 1.3 fold; the “activation (proliferation) of primary human peripheral blood B cells with CD40L+ stimulator cells at 4:1 (B:T), against mAb alone” value was determined as 2 fold.
